# Entries after “also recorded” stand apart in the source; their conditions may differ. Where two headings read alike, the source gives them in different places.
# How the values were obtained:
# [1] = tested on: Balb/C mice with TNBS colitis; type: in vivo, mouse; details: for TNBS-induced weight loss: Example 15, 8 mg/kg after sensitization and on day 1, day 3, PBS treated animals 15%, FIG. 24
# Method: Balb/C mice were sensitized with 160 μL of the haptenizing agent TNBS (Sigma-Aldrich, St. Louis, Mo.) at a concentration of 2.5% in 50% ethanol by skin painting. A week later, 120 μl of 1% TNBS in 50% ethanol was administered intrarectally via a 3.5-French catheter. Mice were sacrificed 3 days after intrarectal TNBS administration. Animals were weighed at the time of sensitization, intrarectal administration and every day following such until sacrifice. Clinical assessment was carried out by evaluating weight loss and histopathology of the colon tissue post mortem.
# Tissues were fixed in phosphate buffered saline containing 4% formalin and embedded in paraffin. Sections (5 μm) were stained with haematoxylin and eosin. The degree of inflammation was assessed by a blinded pathologist using the following scoring system from 0-4: 0, no signs of inflammation; 1, low level of leucocyte infiltration; 2, moderate level of leucocyte infiltration; 3, high level of leucocyte infiltration, high vascular density, thickening of bowel wall; 4, transmural infiltrations, loss of goblet cells, high vascular density, strong bowel wall thickening, edema.
# Twenty Balb/C mice were sensitized via TNBS skin-painting (designated day −7), followed by intrarectal administration of TNBS a week later (designated day 0). The humanized VH2/VK3 antibody (200 μg) was administered at three time points (−6, −2, +1) via i.p. injection to treated animals which were compared with untreated control animals. All the animals were weighed at the time of sensitization, intrarectal administration and every day following such. The animals were sacrificed three days following intrarectal administration (designated +3) following significant weight loss (>5%) in the control group and the colon tissue was removed and sent for histopathological analysis.
# Balb/C mice were sensitized via TNBS skin-painting (Day −7), followed by intrarectal administration of TNBS a week later (designated as day 0). The VH2/VK3 variant (8 mg/kg), Rituximab (8 mg/kg) or PBS, were administered following sensitization and on day 1 following intrarectal induction. The mice were weighed at the time of sensitization, intrarectal administration and every day following such. The animals were sacrificed 3 days following intrarectal administration (Day 3) following significant weight loss in the control groups.
# [2] = tested on: Lewis rats with adjuvant-induced arthritis; details: rat, in vivo
# [3] = tested on: DBA/1 mice with collagen-induced arthritis; type: in vivo, mouse; details: single dose i.p. 200 μg upon clinical signs; vs TBS; FIG. 20
# Method: Nine week old male DBA/1 mice (Harlan Laboratories, Israel) were injected s.c. at the base of the tail with 200 μg collagen type II emulsified in CFA (Difco). Three weeks later mice were boosted s.c. with the same concentration of collagen II. The severity of arthritis was assessed daily by measuring feet diameter of hind and fore paws by caliper by a blinded observer. As controls, the inventors measured 4 mice of about the same age that were not injected with collagen. The mean of the healthy mice served as a “cut-off” measurement. Starting from day 5 after the boost injection, every mouse with a score value above the average of the healthy mice (in one paw or more) was assigned to one of the treatment groups.
# The inventors next examined the in vivo effects of the humanized VH2/VK3 anti-peptide-6 antibody in an additional experimental model of arthritis, the Collagen-Induced Arthritis (CIA) model in mice. Male DBA/1 mice were immunized on day 0 with collagen type II emulsified in CFA to induce arthritis, and a boost dose given on day 21.85% of the mice developed CIA within 2.5 weeks after the boost injection. Upon clinical signs of disease, the mice were treated with a single dose of either the humanized VH2/VK3 anti-peptide-6 antibody (i.p. 200 μg) or tris buffered saline (TBS).
# [4] = tested on: PBMC collected from rheumatoid arthritis (RA) patients; type: cell-based, human; details: 200 μg, 48 hours, two RA patients, vs without antibody; FIG. 21
# Method: PBMC were collected from two RA patients and incubated for 48 hours with or without 200 μg of the humanized anti-peptide-6 antibody (VH2/VK3). Supernatants were then assayed for secreted IL-10 content.
# [5] = tested on: Lewis rats with adjuvant-induced arthritis; type: in vivo, rat; details: IP 1 mg/kg days 11 and 15, serum day 19, FIG. 19
# Method: Evaluation of cytokine levels in cell culture or in the serum of animals was carried out utilizing specific kits from R&D SYSTEMS, Minneapolis Minn. USA (according to the manufacturer's instructions).
# The inventors furthermore evaluated the in vivo effects of the humanized anti-peptide-6 antibody on the induction of IL-10 secretion in the serum of animals having established arthritis. Lewis rats were immunized with MT/CFA on day 0. Rats were treated on days 11 and 15 with humanized VH2/VK3 (IP 1 mg/kg), or with PBS for comparison. Severity of arthritis was evaluated by clinical scoring, and animals were sacrificed on day 19 and serum levels of various cytokines were measured by ELISA (R&D systems). Serum of healthy untreated animals served as a control.
# Balb/C mice = details: mouse, in vivo
# human PBMC = type: cell-based
# [6] = target: T1, adenylyl cyclase-associated protein 1 (CAP1) (Homo sapiens, UniProt Q01518); test: Western blot on over-expressed His-tagged CAP1; type: binding; details: control His CREB; FIG. 13
# T1 construct: made in house; host or cells: E. coli BL21 (modified pET22b vector; cDNA from THP-1 cells)
# [7] = 11-day period, FIG. 25
# [8] = tested on: human macrophages (CD14+ cells); type: cell-based; details: FITC conjugated, 10 μg; double stained with anti-CD14; FIGS. 12, 16
# T1 sequence (Q01518 whole entry): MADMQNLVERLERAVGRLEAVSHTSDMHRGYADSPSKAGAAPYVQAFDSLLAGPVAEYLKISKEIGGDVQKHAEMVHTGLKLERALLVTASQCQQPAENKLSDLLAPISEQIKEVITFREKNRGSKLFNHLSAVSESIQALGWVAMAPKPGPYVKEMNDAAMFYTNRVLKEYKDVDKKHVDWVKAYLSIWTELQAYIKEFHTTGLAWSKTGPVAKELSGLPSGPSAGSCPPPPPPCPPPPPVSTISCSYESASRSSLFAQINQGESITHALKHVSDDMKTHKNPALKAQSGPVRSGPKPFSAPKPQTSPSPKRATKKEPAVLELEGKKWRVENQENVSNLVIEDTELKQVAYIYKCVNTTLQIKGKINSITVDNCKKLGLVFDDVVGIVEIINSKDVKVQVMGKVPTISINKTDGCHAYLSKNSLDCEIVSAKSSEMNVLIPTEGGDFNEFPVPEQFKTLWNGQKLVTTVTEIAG
molecule,measurement,setting,value
Rituximab,TNBS-induced weight loss,[1],14%
same,pathology findings of joints,[2],marked fibrosis and formation of reactive periosteal bone
same,severity of AA (arthritis score),"[2]; ip, 5 mg/kg",no effect on AA
"VH2/VK3: humanized anti-peptide-6 IgG1; heavy chain variable region SEQ ID NO: 21, light chain variable region SEQ ID NO: 26 (antibody, V domains shown, IgG1 constant regions; VH2 amino acid sequence; VK3 amino acid sequence) VH: QVTLKESGPALVKPTQTLTLTCSFSGFSLSTSNMGVGWIRQPAGKGLEWLLHILWNDSKYYNPALKSRLTISKDTYKNQVVLTMTNMDPVDTATYYCARMGGYYGNYGYYAMDYWGQGTLVTVSS VL: QIVLTQSPATLSLSPGERATLSCTASSSVSSSYLHWYQQKPGKAPKLWIYSTSNLASGVPSRFSGSGSGTDYTLTISSLQPEDFATYYCHQYHRSPPTFGQGTKLEIK",severity of established CIA (feet diameter),[3],effective in significantly suppressing the severity of established CIA
same,IL-10 secreted by RA patients' PBMC,[4],robust increase in the amount of IL-10 secreted
same,serum IL-1 levels,[5]; 1 rat per group,remain negligible in all groups
same,serum IL-17 levels,[5]; 1 rat per group,remain negligible in all groups
same,serum TNFα levels,[5]; 1 rat per group,remain negligible in all groups
same,serum IL-4 levels,[5],remain negligible in all groups
same,serum IFN-γ levels,[5]; vs PBS,reduction
same,serum IL-6 levels,[5]; vs PBS,reduction
same,serum IL-10 levels,[5]; vs PBS,clear induction of IL-10 levels
same,"inflammatory response in the colon (microscopic disease score, histology)","[1]; Example 14, 200 μg i.p. at days -6, -2, +1, sacrifice day 3, p<0.05 vs control, FIG. 23",Minimal inflammatory response
same,weight loss in TNBS colitis,"[1]; Example 14, 200 μg i.p. at days -6, -2, +1, vs untreated control, FIG. 22",effective in suppressing the weight loss
same,TNBS-induced weight loss,[1],3.5%
same,"pathological findings (heart, liver, lung, spleen, kidney)",Balb/C mice,no significant pathological findings
same,severity of established AA (arthritis score),"[2]; ip, 2.5 mg/kg",effective in significantly suppressing the severity of established AA
same,IL-10 induction in PBMC cultures,human PBMC,best IL-10 induction; also recorded: induced higher IL-10 expression than the other variants
same,IL-10 secreted from human PBMC,human PBMC,significant increase in IL-10 secreted
same,recognition of His-tagged CAP1 (Western blot),[6],recognized the His-tagged CAP1 protein specifically
same,serum half-life,[7]; 500 μg i.p. on day 0,approximately 10 days
same,serum half-life,[7]; 500 μg s.c. on day 0,approximately 10 days
same,binding to CD14 positive cells (FACS),[8],binds to most of the CD14 positive cells

# From patent publication US8680241B2 (priority 2009, dated 2014)
